Reference: patent US20250368738A1 (PHILOGEN S P A, published 2025)

Experiments:
murine CD28 Fc = molecular target: T1, murine CD28 Fc (mouse, UniProt P31041 20-150); experiment: titration ELISA, His6-tagged CD28-ECD on NiNTA plates, FITC-conjugated antibody
T1 construct: also called murine CD28 ECD; mouse CD28 Fc; not shown: His6 tag and Fc part of the murine construct

[1] = molecular target: T2, human CTLA-4 protein containing His6 Tag (SinoBiological, Cat: 11159-H08H) (human, UniProt P16410 36-162); experiment: titration ELISA, His6-tagged human CTLA-4 on NiNTA plates, FITC-conjugated antibody
T2 construct: Bought protein

[2] = molecular target: T3, murine CD28 on the surface of primary mouse T cells (mouse, UniProt P31041 20-218); experiment: flow cytometry on primary mouse T cells
T3 construct: whole, on cells
Method: Cells were first blocked for 30 minutes in FACS buffer (PBS, 2% FBS and 2 mM EDTA). […] Zombie NIR was used to discriminate live from dead cells.

[3] = molecular target: T3, murine CD28 on the surface of primary …; experiment: flow cytometry on primary mouse T cells, 50 nM antibody
[4] = molecular target: T4, human CD28-ECD (extracellular domain) recombinant fragment containing a C-terminal Avi tag, His6 tag and Fc … (human, site specifically biotinylated using BirA (Avi tag) in the ELISA of Example 2.1); experiment: titration ELISA
T4 construct: also called CD28-Fc; CD28-Fc fusion protein
T4 sequence (chain, as listed by the source limits assumed): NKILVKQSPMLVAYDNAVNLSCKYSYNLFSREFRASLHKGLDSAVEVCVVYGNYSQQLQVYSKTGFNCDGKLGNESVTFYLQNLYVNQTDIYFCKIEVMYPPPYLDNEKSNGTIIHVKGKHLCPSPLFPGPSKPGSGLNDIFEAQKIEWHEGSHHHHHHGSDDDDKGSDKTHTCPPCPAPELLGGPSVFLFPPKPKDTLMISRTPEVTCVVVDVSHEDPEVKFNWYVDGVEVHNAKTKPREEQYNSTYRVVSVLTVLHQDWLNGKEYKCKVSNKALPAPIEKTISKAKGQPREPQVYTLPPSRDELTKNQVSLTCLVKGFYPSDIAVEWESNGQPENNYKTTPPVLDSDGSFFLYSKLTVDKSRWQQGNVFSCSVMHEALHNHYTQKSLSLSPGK

[5] = molecular target: T5, human CD28 expressed on primary human T cells (human, UniProt P10747 19-220); experiment: flow cytometry on primary human T cells, 50 nM antibody
T5 construct: whole, on cells; also called primary human T cells expressing CD28
Method: Cells were first blocked for 30 minutes in FACS buffer (PBS, 2% FBS and 2 mM EDTA). […] Zombie near infrared (NIR) was used to discriminate live from dead cells.

Binder	binding result (murine CD28 Fc)	binding result [1]	binding result [2]	binding result [3]	binding result [4]	binding result [5]
TGN1412 IgG4 (antibody, V domains shown, U.S. Pat. No. 8,709,414'; also called TGN1412 antibody in IgG4 format) VH: QVQLVQSGAEVKKPGASVKVSCKASGYTFTSYYIHWVRQAPGQGLEWIGCIYPGNVNTNYNEKFKDRATLTVDTSISTAYMELSRLRSDDTAVYFCTRSHYGLDWNFDVWGQGTTVTVSS VL: not shown	no binding	no binding	no binding (tested: 50 nM)	–	–	–
anti-human CEA IgG/AE2P (scFv)2 bispecific antibody in IgG-(scFv)2 (2+2) format (format 1, FIG. 13) (bispecific antibody, also called anti-human CEA IgG/anti-CD28 (scFv)2 bispecific antibody) heavy: not shown light: EIVLTQSPGTLSLSPGERATLSCRASQSVSQNHLAWYQQKPGQAPRLLIYLASRRHTGIPDRFSGSGSGTDFTLTISRLEPEDFAVYYCQQSGRVPWTFGQGTKVEIKRTVAAPSVFIFPPSDEQLKSGTASVVCLLNNFYPREAKVQWKVDNALQSGNSQESVTEQDSKDSTYSLSSTLTLSKADYEKHKVYACEVTHQGLSSPVTKSFNRGEC	–	–	–	binds	–	–
AE2P antibody in IgG4 format (antibody, V domains shown, unconjugated in flow cytometry; also called AE2P IgG4; IgG4 (AE2P)) VH: not shown VL: DIQMTQSPSSLSASVGDRVTITCRASQSISSYLNWYQQKPGKAPKLLIYAASSLQSGVPSRFSGSGSGTDFTLTISSLQPEDFATYYCQQGGMPPDTFGQGTKVEIKR	binds	binds	–	binds	binds	binds
